In one data set the target is T1, VirE2 (Agrobacterium tumefaciens (nopaline …, UniProt P08062 1-556)).
T1 sequence: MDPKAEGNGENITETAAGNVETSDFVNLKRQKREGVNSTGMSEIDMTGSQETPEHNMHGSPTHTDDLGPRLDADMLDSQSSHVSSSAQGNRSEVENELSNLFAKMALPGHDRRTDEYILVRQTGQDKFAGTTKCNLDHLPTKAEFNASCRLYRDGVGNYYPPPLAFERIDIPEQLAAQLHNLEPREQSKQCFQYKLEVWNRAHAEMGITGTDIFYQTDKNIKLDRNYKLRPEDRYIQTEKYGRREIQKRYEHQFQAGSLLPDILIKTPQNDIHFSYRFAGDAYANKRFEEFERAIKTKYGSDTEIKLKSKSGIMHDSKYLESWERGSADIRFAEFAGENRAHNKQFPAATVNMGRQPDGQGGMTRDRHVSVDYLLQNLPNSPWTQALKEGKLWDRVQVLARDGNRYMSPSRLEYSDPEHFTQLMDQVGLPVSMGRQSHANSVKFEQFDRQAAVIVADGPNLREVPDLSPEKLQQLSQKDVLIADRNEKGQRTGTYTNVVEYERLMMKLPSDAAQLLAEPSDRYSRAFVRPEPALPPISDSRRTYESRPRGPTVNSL
Briefly: SPRi.

Data set [1] concerns the target T2, VirE2 (co-expressed with VirE1);VirE1 (Agrobacterium tumefaciens (nopaline …, UniProt P08062;P08063 1-556;1-63, |)).
T2 sequence 1: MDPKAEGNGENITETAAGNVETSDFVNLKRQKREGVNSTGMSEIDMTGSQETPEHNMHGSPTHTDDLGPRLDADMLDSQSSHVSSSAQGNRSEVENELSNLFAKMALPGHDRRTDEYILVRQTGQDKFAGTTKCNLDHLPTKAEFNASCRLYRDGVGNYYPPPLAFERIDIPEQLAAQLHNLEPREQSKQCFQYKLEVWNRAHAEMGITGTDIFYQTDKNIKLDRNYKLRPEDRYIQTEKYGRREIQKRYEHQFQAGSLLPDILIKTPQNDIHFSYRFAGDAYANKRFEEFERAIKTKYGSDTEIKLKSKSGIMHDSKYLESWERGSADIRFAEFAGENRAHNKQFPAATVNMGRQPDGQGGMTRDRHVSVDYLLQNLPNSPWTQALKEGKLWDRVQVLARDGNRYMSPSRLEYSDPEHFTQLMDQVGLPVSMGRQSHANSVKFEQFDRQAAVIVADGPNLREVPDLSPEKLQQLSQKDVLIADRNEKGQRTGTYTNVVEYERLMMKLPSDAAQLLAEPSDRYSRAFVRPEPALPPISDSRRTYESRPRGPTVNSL
T2 sequence 2: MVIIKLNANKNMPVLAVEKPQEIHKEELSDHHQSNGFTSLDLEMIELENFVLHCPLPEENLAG
Briefly: SPRi.

On to TTTTTTTTTTTTTTTTTTTTTTTTTTTTTTTTTTTTTTTT (ssDNA, 5' C6-thiol) [ssT40 (poly-T 40-mer)], for which the binding result (with VirE2; in data set [1]) was “binds” throughout.
